# Results published in patent publication US7101843B2, “Glucagon-like peptide-1 analogs” (Eli Lilly and Company, priority 2001, dated 2006).
# “And” between values parts separate entries of the source, which are not always exact repeats. Equal entries are not always repeated.
# Key:
# [1] = GLP aggregation assay (turbidity at 350 nm, time to onset of aggregation); type: physicochemical; conditions: for aggregation time: at 30° C., stirred solution, pH 7.4
# Method: GLP peptides of this invention were analyzed with respect to their potential to aggregate in solution. In general, peptides in solution were stirred at elevated temperature in a suitable buffer while recording turbidity at 350 nm as a function of time. Time to the onset of aggregation was measured to quantify the potential of a given GLP molecule to aggregate under these stressed conditions.
# A GLP-1 compound was first dissolved under alkaline conditions (pH 10.5) for 30 minutes to dissolve any pre-aggregated material. The solution was then adjusted to pH 7.4 and filtered. Specifically, 4 mg of a lyophilized GLP-1 compound was dissolved in 3 ml of 10 mM phosphate/10 mM citrate. The pH was adjusted to 10.0–10.5 and held for 30 minutes. The solution was adjusted with HCl to pH 7.4 and filtered through a suitable filter, for example a Millex GV syringe filter (Millipore Corporation, Bedford, Mass.). […] Every five minutes the turbidity of the solution was measured at 350 nm on an AVIV Model 14DS UV-VIS spectrophotometer (Lakewood, N.J.). For 30 seconds prior to and during the measurement the solution was stirred using a magnetic stir bar from Starna Cells, Inc. (Atascadero, Calif.). An increase in OD at 350 nm indicates aggregation of the GLP-peptide. The time to aggregation was approximated by the intersection of linear fits to the pre-growth and growth phase according to method of Drake (Arvinte T, Cudd A, and Drake A F. (1993) J. Bio. Chem. 268, 6415–6422).
# GLP-1 receptor = GLP-1 receptor (Homo sapiens, UniProt P43220); assay: GLP-1 receptor activation in vitro; type: cell-based; conditions: Val^8-GLP-1(7-37)OH = 1.0, several values in a cell are repeat determinations
# Text: “Insulinotropic activity” refers to the ability to stimulate insulin secretion in response to elevated glucose levels, thereby causing glucose uptake by cells and decreased plasma glucose levels. […] The entire teachings of these references are incorporated herein by reference.
# The entire teachings of these references are incorporated herein by reference.
# [2] = system: plasma insulin and plasma glucose; assay: Intravenous glucose tolerance test (IVGTT) in rats; type: in vivo, wistar male rats; conditions: plasma insulin after injection (figures)
# Method: FIG. 1 graphs plasma insulin and plasma glucose concentrations obtained at various time points after injection of increasing concentrations of Val^8-GLP-1(7–37)OH in rats.
# FIG. 2 graphs plasma insulin concentrations obtained at various time points after injection of increasing concentrations of Val^8-Glu^22-Val^25-Ile^33-GLP-1 (7–37)OH in rats.
# A double cannulation procedure was performed on fasting wistar male rats to facilitate injection of solutions and withdrawal of blood. Rats were injected through the jugular cannula with a bolus of 10% glucose solution followed by a solution containing a specific amount of a GLP-1 compound. Rats were injected with 0.01, 0.03, 0.1, 0.3, 1, and 10 μg/kg of GLP-1 compound. Blood was collected through the carotid cannula 2, 4, 6, 10, and 30 minutes following the injection of GLP-1 compound and analyzed. Plasma insulin and plasma glucose levels were measured in each sample. Average insulin and glucose levels are illustrated in FIGS. 1, 2, and 3.
# Chain of GLP-1 receptor (P43220 24-463, species assumed): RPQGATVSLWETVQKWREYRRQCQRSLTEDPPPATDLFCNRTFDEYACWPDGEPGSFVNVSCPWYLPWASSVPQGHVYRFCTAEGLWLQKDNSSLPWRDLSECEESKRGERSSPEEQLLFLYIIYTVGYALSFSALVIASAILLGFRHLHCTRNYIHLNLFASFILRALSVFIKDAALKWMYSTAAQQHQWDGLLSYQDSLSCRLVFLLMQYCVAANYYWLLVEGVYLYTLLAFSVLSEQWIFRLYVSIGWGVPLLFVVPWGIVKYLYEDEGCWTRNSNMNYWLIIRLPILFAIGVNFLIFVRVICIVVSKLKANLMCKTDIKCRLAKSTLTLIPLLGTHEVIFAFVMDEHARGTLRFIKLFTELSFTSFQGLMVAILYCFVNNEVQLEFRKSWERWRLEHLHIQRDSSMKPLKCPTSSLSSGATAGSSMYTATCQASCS
Substance,aggregation time [1],propensity to aggregate in solution compared to Val^8-GLP-1(7–37)OH [1],GLP-1 receptor activation relative to Val^8-GLP-1(7-37)OH (GLP-1 receptor),in vivo potency compared to Val^8-GLP-1(7–37)OH [2]
Val^8-Glu^22-GLP-1(7–37)OH,approximately 72 hours,markedly decreased propensity to aggregate,,
Val^8-Glu^22-Ile^33-GLP-1(7-37)OH (HVEGTFTSDVSSYLEEQAAKEFIAWLIKGRG) [GLP-1 analog],,,4.7 and 3.8 and 3.4,
Val^8-Glu^22-Val^25-GLP-1(7-37)OH (HVEGTFTSDVSSYLEEQAVKEFIAWLVKGRG) [GLP-1 analog],,,4.7 and 2.9,
Val^8-Glu^22-Val^25-Ile^33-GLP-1(7-37)OH (HVEGTFTSDVSSYLEEQAVKEFIAWLIKGRG) [GLP-1 analog],,,4.9 and 5.8 and 6.7,higher in vivo potency
Val^8-Glu^30-GLP-1(7-37)OH (HVEGTFTSDVSSYLEGQAAKEFIEWLVKGRG) [GLP-1 analog],approximately 30 hours,markedly decreased propensity to aggregate,,
Val^8-His^37-GLP-1(7-37)OH (HVEGTFTSDVSSYLEGQAAKEFIAWLVKGRH) [GLP-1 analog],greater than 40 hours,markedly decreased propensity to aggregate,,
Val^8-Tyr^16-Glu^22-GLP-1(7-37)OH (HVEGTFTSDYSSYLEEQAAKEFIAWLVKGRG) [GLP-1 analog],,,3.6 and 3.8 and 4.9 and 4.6,
Val^8-Tyr^18-Glu^22-GLP-1(7-37)OH (HVEGTFTSDVSYYLEEQAAKEFIAWLVKGRG) [GLP-1 analog],,,5.1 and 5.9,
